Experimental data from US5955420, “Rse receptor activation” (Genentech, Inc., dated 1999).

Target: CD4-IgG (human, UniProt P01730)
Experiment: competition in the FBS-mediated CMK11-5 membrane binding assay
Description: After a 30 min incubation at room temperature, 1 ml of ice cold assay buffer was added to each tube. Then, the membrane associated radioactivity was collected by centrifugation for 4 min at 15000 g, separated from unbound radioactivity by aspiration of the supernatant fluid and counted in a γ counter.

binding result: no binding
B1: Rse ligand (Rse-L) in fetal bovine serum, unpurified or Q-Sepharose enriched (ligand)
chain: ANTLLEETKKGNLERECIEELCNKEEAREIFENNPETEYFYPKYLGCLGSFRAGLFTAARLSTNAYPDLRSCVNAISDQCNPLPCNEDGFMTCKDGQATFTCICKSGWQGEKCESDINECKDPVNINGGCSQICENTPGSYHCSCKNGFVMLSNKKDCKDVDECVLKPSICGTAVCKNIPGDFECECAEGYKYNPVSKSCDDVDECAENLCAQLCVNYPGGYSCYCDGKKGFKLAQDQKSCEAVPVCLPLDLDKNYELLYLAEQFVGVVLYLKFRLPETTRFSAEFDFRTYDSEGVILYAESSDHSAWFLIALREGKIEIQFKNEKTTKMTTGGKVINDGLWHMVSVEELEQSISVKIAKEAVMNINKPGSLFKPTNGFLETKVYFAGVPRKMENALIRPINPRLDGCIRGWNLMNQGTSGVKEIIQEKQNKHCLVNVEKGSYYPGTGVAQFSINYKNESNPEAWQINVSLNIRPSAGTGVMLALVSDNTVPFALSLVDSATEKLQDILVSVESMVIGRIEAISLCSDQQTFLEIRVNRNNLELSTQLRKDSFHSEDFQRQFAILDEAMKGTVVTYLGGLPDVPFSATPVNAFYQGCMEVNINGVQVDLDEAISKHNDIRAHSCPSVWQKTKHT
